From US20100003258A1 (AVEO PHARMACEUTICALS, published 2010)

What was measured:
[1] = biological target: T1, recombinant human FGFR3 IIIc Fc fusion protein (human, UniProt P22607 23-375); assay: SPR (Biacore T100), antibody captured on anti-mouse Ig, rhFGFR3 IIIc Fc as analyte, 37 C
T1 construct: Bought reagent; also called rhFGFR3 IIIc Fc; not shown: Fc fragment (removable by Factor Xa)
T1 sequence (looked up): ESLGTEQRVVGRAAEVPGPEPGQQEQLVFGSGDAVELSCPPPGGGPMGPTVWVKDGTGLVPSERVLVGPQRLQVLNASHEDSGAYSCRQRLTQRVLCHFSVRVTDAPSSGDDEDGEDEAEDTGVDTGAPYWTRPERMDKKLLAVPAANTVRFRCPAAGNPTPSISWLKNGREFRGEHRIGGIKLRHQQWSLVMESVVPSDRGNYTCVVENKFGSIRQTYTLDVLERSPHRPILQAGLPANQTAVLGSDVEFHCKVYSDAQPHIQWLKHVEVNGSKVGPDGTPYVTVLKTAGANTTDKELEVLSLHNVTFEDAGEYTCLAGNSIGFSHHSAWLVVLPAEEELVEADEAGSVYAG
Experimental: (§1) The binding affinities and kinetics of interaction of the monoclonal antibodies (15D8, 27H2, 2G4, and 4E7(7D12)) produced in Example 1 against recombinant human FGFR3 (IIIb and IIIc isoforms) Fc fusion protein (rhFGFR3 IIIb Fc or rhFGFR3 IIIc Fc) were measured by surface plasmon resonance using a Biacore™ T100 (Biacore) instrument.
(§2) Rabbit anti-mouse immunoglobulins (Biacore, Catalog No. BR-1005-14) were immobilized on carboxymethylated dextran CM4 sensor chips (Biacore, Catalog No. BR-1005-34) by amine coupling (Biacore, Catalog No. BR-1000-50) using a standard coupling protocol according to manufacturer's instructions.
(§3) The antibodies were captured in an individual flow cell at a flow rate of 10 μl/min. Injection time was varied for each antibody to yield approximately 40-50 RU of antibody captured for each cycle. Buffer or rhFGFR3 IIIb Fc (R&D Systems, Catalog No. 1264-FR-050) or rhFGFR3 IIIc Fc (R&D Systems, Catalog No. 766-FR-050) diluted in running buffer was injected sequentially over a reference surface (no antibody captured) and the active surface (antibody to be tested) for 300 sec at 60 μl/min. The dissociation phase was monitored for 30 minutes. The surface was then regenerated with two 60-seconds injection of 10 mM Glycine-HCl, pH 1.7 (made from Glycine pH 1.5 (Biacore, Catalog No. BR-1003-54) and pH 2.0 (Biacore, Catalog No. BR-1003-55)) at a flow rate of 60 μl/min. rhFGFR3 Fc concentrations tested were 0.62 nM to 40 nM.

[2] = biological target: T2, recombinant human FGFR3 IIIb Fc fusion protein (human, UniProt P22607-2 23-377, limits assumed); assay: SPR (Biacore T100), antibody captured on anti-mouse Ig, rhFGFR3 IIIb Fc as analyte, 37 C
T2 construct: Bought reagent; the IIIb splice isoform is meant; also called rhFGFR3 IIIb Fc; hFGFR3 IIIb; not shown: Fc fragment (removable by Factor Xa, detected with anti-human IgG)
T2 sequence (looked up): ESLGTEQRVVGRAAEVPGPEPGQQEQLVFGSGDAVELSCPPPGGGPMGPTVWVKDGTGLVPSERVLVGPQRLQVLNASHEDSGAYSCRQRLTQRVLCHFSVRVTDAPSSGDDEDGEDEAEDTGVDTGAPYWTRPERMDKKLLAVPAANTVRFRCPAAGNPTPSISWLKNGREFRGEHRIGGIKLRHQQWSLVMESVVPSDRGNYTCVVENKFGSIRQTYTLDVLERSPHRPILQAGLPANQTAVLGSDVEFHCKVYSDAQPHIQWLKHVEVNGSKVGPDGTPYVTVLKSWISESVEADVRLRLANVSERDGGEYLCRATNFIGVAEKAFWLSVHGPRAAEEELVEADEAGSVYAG
Experimental: as §1, §2, §3

[3] = biological target: T1, recombinant human FGFR3 IIIc Fc fusion …; assay: SPR (Biacore T100), antibody captured on anti-mouse Ig, rhFGFR3 IIIc Fc as analyte, 25 C
Experimental: as §1, §2, §3

[4] = biological target: T2, recombinant human FGFR3 IIIb Fc fusion …; assay: ECL competition assay: inhibition of rhFGFR3 IIIb Fc binding to coated FGF1 (competitor FGF1)
Experimental: The antibodies were tested by ECL (Electrochemiluminescence) assay for inhibition of hFGFR3 IIIB binding to FGF-1. […] The plates then were washed 3 times with PBS and blocked with 200 μl of PBS containing 5% BSA (Sera Care Life Sciences, Catalog No. AP-4510-80) and 5 μg/mL heparin (Sigma, Catalog No. H4784) for 1 hour at room temperature. The antibodies (concentration range: 0.029-30 μg/mL) were incubated for 1 hour at room temperature with 1.7 μg/mL rhFGFR3 IIIb Fc (R&D Systems, Catalog No. 1264-FR-050) and 5 μg/mL heparin. After washing the plates 3 times with PBS, 25 μl of the antibody-receptor mixture was added to the plates for another hour at room temperature with agitation. The plates were washed three times with PBS and incubated with 25 μl of 1 μg/mL ST-anti-human IgG antibody (Meso Scale Discovery, Catalog No. R32AJ-1) for 1 hour at room temperature with agitation. The plates then were washed 3 times with PBS, and 150 μl of 1× read buffer (Meso Scale Discovery, Catalog No. R92TC-1) was added to each well before the plates were analyzed on a Sector Imager 2400 (Meso Scale Discovery) instrument.

[5] = biological target: T2, recombinant human FGFR3 IIIb Fc fusion …; assay: SPR (Biacore T100), antibody captured on anti-mouse Ig, rhFGFR3 IIIb Fc as analyte, 25 C
Experimental: as §1, §2, §3

B1: anti-FGFR3 monoclonal antibody 4E7 (antibody, mouse IgG1, kappa, V domains shown)
VH: EIQLQQSGPELVKPGASVKVSCKASGYAFTSYNMYWVKQSHGKSLEWIGYIDPYNGGTRYNQKFKGKATLTVDKSSSTAYMHLNSLTSEDSAVYYCAREGGNYEAWFAYWGQGTLVTVSA
VL: QIVLTQSPALMSASPGEKVTMTCSASSSVSYMYWYQQKPRSSPKPWIYLTSNLASGVPARFSGSGSGTSYSLTISSMEAEDAATYYCQQWSSNPLTFGAGTKLELKR
notes: Murine IgG1/kappa from hybridoma; also called 4E7 IgG1; 4E7 (7D12)
Kd [1]: 2.2 nM
koff [1]: 0.00017 s⁻¹
kon [1]: 94000 M⁻¹ s⁻¹
Kd [2]: 3.3 nM
koff [2]: 0.00023 s⁻¹
kon [2]: 74000 M⁻¹ s⁻¹
Kd [3]: 2.6 nM
koff [3]: 0.00019 s⁻¹
kon [3]: 110000 M⁻¹ s⁻¹
IC50 [4]: 18.5 nM
Maximum Neutralization (%) [4]: 91.2%
Kd [5]: 3.3 nM
koff [5]: 0.00037 s⁻¹
kon [5]: 150000 M⁻¹ s⁻¹

B2: anti-FGFR3 monoclonal antibody 2G4 (antibody, mouse IgG1, kappa, V domains shown)
VH: EIQLQQSGPELVKPGASVKVSCKASGYAFTSYNMYWVKQSHGKSLEWIGYIDPYNGGTRDNQKFKGKATLTVDKSSSTAYMHLNSLTSEDSAVYYCAREGGNYEAWFAYWGQGTLVTVSA
VL: QIVLTQSPALMSASPGEKVTMTCSASSSVSYMYWYQQKPRSSPKPWIYLTSNLASGVPARFSGSGSGTSYSLTISSMEAEDAATYYCQQWSSNPLTFGAGTKLELKR
notes: Murine IgG1/kappa from hybridoma; also called 2G4 IgG1; murine antibody 2G4
Kd [1]: 2.6 nM
koff [1]: 0.00026 s⁻¹
kon [1]: 100000 M⁻¹ s⁻¹
Kd [2]: 1.4 nM
koff [2]: 0.00023 s⁻¹
kon [2]: 150000 M⁻¹ s⁻¹
Kd [3]: 1.1 nM
koff [3]: 0.00011 s⁻¹
kon [3]: 100000 M⁻¹ s⁻¹
IC50 [4]: 11.1 nM
Maximum Neutralization (%) [4]: 64.9%
Kd [5]: 3.2 nM
koff [5]: 0.00032 s⁻¹
kon [5]: 120000 M⁻¹ s⁻¹

B3: anti-FGFR3 monoclonal antibody 27H2 (antibody, mouse IgG1, kappa, V domains shown)
VH: EIQLQQSGPELVKPGASVKVSCKASGYAFTSYNMYWVKQSHGKSLEWIGYIDPYNGGTRYNQKFKGKATMTVDKSSSTAYMHLNSLTSEDSAVYYCAREGGNYEAWFAYWGQGTLVTVSA
VL: QIVLTQSPALMSASPGEKVTMTCSASSSVSYMYWYQQKPRSSPKPWIYLTSNLASGVPARFSGSGSGTSYSLTISSMEAEDAATYYCQQWSSNPLTFGAGTKLELKR
notes: Murine IgG1/kappa from hybridoma; also called 27H2 IgG1; murine antibody 27H2
Kd [1]: 2.1 nM
koff [1]: 0.0002 s⁻¹
kon [1]: 96000 M⁻¹ s⁻¹
Kd [2]: 2.1 nM
koff [2]: 0.00019 s⁻¹
kon [2]: 100000 M⁻¹ s⁻¹
Kd [3]: 2.1 nM
koff [3]: 0.00016 s⁻¹
kon [3]: 75000 M⁻¹ s⁻¹
IC50 [4]: 15.4 nM
Maximum Neutralization (%) [4]: 99.6%
Kd [5]: 3 nM
koff [5]: 0.00026 s⁻¹
kon [5]: 90000 M⁻¹ s⁻¹

B4: anti-FGFR3 monoclonal antibody 7D12 (antibody, mouse IgG1, kappa, V domains shown)
VH: EIQLQQSGPELVKPGASVKVSCKASGYAFTSYNMYWVKQSHGKSLEWIGYIDPYNGGTRYNQKFKGKATLTVDKSSSTAYMHLNSLTSEDSAVYYCAREGGNYEAWFAYWGQGTLVTVSA
VL: QIVLTQSPALMSASPGEKVTMTCSASSSVSYMYWYQQKPRSSPKPWIYLTSNLASGVPARFSGSGSGTSYSLTISSMEAEDAATYYCQQWSSNPLTFGAGTKLELKR
notes: Murine IgG1/kappa from a separate hybridoma; also called 7D12 IgG1; 4E7 (7D12)
IC50 [4]: 13.3 nM
Maximum Neutralization (%) [4]: 93.9%

B5: 4E7 Fab (Fab, V domains shown, not shown: a dimerising Fc or GST)
VH: EIQLQQSGPELVKPGASVKVSCKASGYAFTSYNMYWVKQSHGKSLEWIGYIDPYNGGTRYNQKFKGKATLTVDKSSSTAYMHLNSLTSEDSAVYYCAREGGNYEAWFAYWGQGTLVTVSA
VL: QIVLTQSPALMSASPGEKVTMTCSASSSVSYMYWYQQKPRSSPKPWIYLTSNLASGVPARFSGSGSGTSYSLTISSMEAEDAATYYCQQWSSNPLTFGAGTKLELKR
notes: Fab fragment of murine 4E7; preparation not described; also called anti-FGFR3 Fab fragment 4E7
IC50 [4]: 69.5 nM
Maximum Neutralization (%) [4]: 92.2%

B6: 2G4 Fab (Fab, V domains shown, not shown: a dimerising Fc or GST)
VH: EIQLQQSGPELVKPGASVKVSCKASGYAFTSYNMYWVKQSHGKSLEWIGYIDPYNGGTRDNQKFKGKATLTVDKSSSTAYMHLNSLTSEDSAVYYCAREGGNYEAWFAYWGQGTLVTVSA
VL: QIVLTQSPALMSASPGEKVTMTCSASSSVSYMYWYQQKPRSSPKPWIYLTSNLASGVPARFSGSGSGTSYSLTISSMEAEDAATYYCQQWSSNPLTFGAGTKLELKR
notes: Fab fragment of murine 2G4; preparation not described; also called anti-FGFR3 Fab fragment 2G4
IC50 [4]: 65 nM
Maximum Neutralization (%) [4]: 96.2%

B7: 15D8 Fab (Fab, V domains shown, not shown: a dimerising Fc or GST)
VH: EIQLQQSGPELVKPGASVKVSCKASGYAFTSYNMYWVKQSHGKSLEWIGYIDPYNGGTSYNQKFKGKATLTVDKSSSTAYMHLNSLTSEDSAVYYCAREGGNYEAWFAYWGQGTLVTVSA
VL: QIVLTQSPALMSASPGEKVTMTCSASSSVSYMYWYQQKPRSSPKPWIYLTSYLASGVPARFSGSGSGTSYSLTISSMEAEDAATYYCQQWSSYPLTFGAGTKLELKR
notes: Fab fragment of murine 15D8; preparation not described; also called anti-FGFR3 Fab fragment 15D8
IC50 [4]: 63.8 nM
Maximum Neutralization (%) [4]: 91.7%

B8: 27H2 Fab (Fab, V domains shown, not shown: a dimerising Fc or GST)
VH: EIQLQQSGPELVKPGASVKVSCKASGYAFTSYNMYWVKQSHGKSLEWIGYIDPYNGGTRYNQKFKGKATMTVDKSSSTAYMHLNSLTSEDSAVYYCAREGGNYEAWFAYWGQGTLVTVSA
VL: QIVLTQSPALMSASPGEKVTMTCSASSSVSYMYWYQQKPRSSPKPWIYLTSNLASGVPARFSGSGSGTSYSLTISSMEAEDAATYYCQQWSSNPLTFGAGTKLELKR
notes: Fab fragment of murine 27H2; preparation not described; also called anti-FGFR3 Fab fragment 27H2
IC50 [4]: 53.5 nM
Maximum Neutralization (%) [4]: 95.8%

B9: 7D12 Fab (Fab, V domains shown, not shown: a dimerising Fc or GST)
VH: EIQLQQSGPELVKPGASVKVSCKASGYAFTSYNMYWVKQSHGKSLEWIGYIDPYNGGTRYNQKFKGKATLTVDKSSSTAYMHLNSLTSEDSAVYYCAREGGNYEAWFAYWGQGTLVTVSA
VL: QIVLTQSPALMSASPGEKVTMTCSASSSVSYMYWYQQKPRSSPKPWIYLTSNLASGVPARFSGSGSGTSYSLTISSMEAEDAATYYCQQWSSNPLTFGAGTKLELKR
notes: preparation not described; also called anti-FGFR3 Fab fragment 7D12
IC50 [4]: 50 nM
Maximum Neutralization (%) [4]: 88.8%
